Results from paper doi:10.1101/2020.12.31.425005 (bioRxiv, 2020).

Biological target: the molecule itself
Assay: crystal structure

B1: Haemophilus ducreyi I51M-L72M-YhcB cytosolic region, residues 31-128 (domain or fragment)
chain: MKGNIQQQIQLKSELASAEAKMEEQKQQLERHFEQSANLLENMAEDYKKLYTHFAQNSEQLLPESNQVEFFKRLKNHANGDEDNQPRDYSDGSSGLLKS
modifications: selenomethionine-labeled (Met-51, Met-72)
  stoichiometry N: 4
